Measurements taken from patent publication US20200262895A1 (Biogen, published 2020).

Assays:
[1] = molecular target: T1, recombinant human tau, isoform Tau-F of 441 aa (hTau40) (human, UniProt P10636 1-758); test: binding of CHO-produced antibody to recombinant tau; format not stated
T1 construct: Bought from rPeptide (Bogart, GA, USA); coated on ELISA plates, blotted, or spotted as overlapping peptides; also called full-length tau; rTau

[2] = molecular target: T2, normal tau in wild type mouse brain (Wt) (mouse, UniProt P10637-2 1-430, limits assumed); test: immunohistochemistry on brain tissue
T2 construct: Control tissue in immunohistochemistry

[3] = molecular target: T1, recombinant human tau, isoform Tau-F of …; test: direct ELISA on coated recombinant tau (rTau)
[4] = molecular target: T3, PHFTau (paired helical filaments containing pathologically phosphorylated tau filaments, extracted from AD … (human, UniProt P10636-8 1-441, limits assumed, pathologically phosphorylated (sites of the preparation not listed), aggregated filaments)); test: direct ELISA on coated PHFTau
T3 construct: Brain extract, not a single defined isoform; also called human PHF tau; pathologically modified PHFTau

[5] = molecular target: T1, recombinant human tau, isoform Tau-F of …; test: direct ELISA, hTau40 coated at 3 ug/ml
From the text: (§1) The EC₅₀ values were estimated by a non-linear regression using GraphPad Prism software.

[6] = molecular target: T1, recombinant human tau, isoform Tau-F of …; test: direct ELISA, hTau40 coated at 1 ug/ml
Description: as §1
ELISA plates were coated with recombinant human tau (hTau40, 1 ug/ml), PHFTau (1:100) and control preparation (1:100), and incubated with varying antibody concentrations.

T1 sequence (P10636 other isoform, or with tags, fused parts or gaps limits assumed): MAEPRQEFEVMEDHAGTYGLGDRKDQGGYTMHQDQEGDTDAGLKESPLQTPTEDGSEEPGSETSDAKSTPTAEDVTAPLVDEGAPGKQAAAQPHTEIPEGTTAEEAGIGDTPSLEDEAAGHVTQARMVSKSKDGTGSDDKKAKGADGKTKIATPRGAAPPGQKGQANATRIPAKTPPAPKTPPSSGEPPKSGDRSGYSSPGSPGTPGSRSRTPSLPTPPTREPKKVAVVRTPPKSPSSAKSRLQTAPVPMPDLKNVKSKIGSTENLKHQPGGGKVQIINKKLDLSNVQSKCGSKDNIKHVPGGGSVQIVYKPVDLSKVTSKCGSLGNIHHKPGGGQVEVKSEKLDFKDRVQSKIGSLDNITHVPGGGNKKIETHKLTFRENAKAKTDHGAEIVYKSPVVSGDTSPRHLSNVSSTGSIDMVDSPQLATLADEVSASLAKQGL
T3 sequence (P10636 other isoform, or with tags, fused parts or gaps limits assumed): as above
T2 sequence (P10637 other isoform, or with tags, fused parts or gaps limits assumed): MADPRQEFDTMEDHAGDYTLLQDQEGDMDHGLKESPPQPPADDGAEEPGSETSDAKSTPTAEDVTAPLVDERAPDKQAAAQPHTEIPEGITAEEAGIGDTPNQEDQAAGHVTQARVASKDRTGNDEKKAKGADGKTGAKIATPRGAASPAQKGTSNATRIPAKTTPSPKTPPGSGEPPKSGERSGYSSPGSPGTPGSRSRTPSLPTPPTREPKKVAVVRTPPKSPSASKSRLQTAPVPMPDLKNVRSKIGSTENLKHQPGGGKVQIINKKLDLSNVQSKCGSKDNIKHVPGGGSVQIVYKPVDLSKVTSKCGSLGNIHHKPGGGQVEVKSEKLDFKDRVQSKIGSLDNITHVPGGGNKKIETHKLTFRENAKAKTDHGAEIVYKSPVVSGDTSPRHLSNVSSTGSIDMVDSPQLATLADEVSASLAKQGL

B1: chimeric NI-105.4E4(N30Q) (ch4E4(N30Q)), mouse IgG2a/lambda (antibody, V domains shown)
VH: EVQLVESGGGLVQPGGSLKLSCAASGFNFQISAIHWVRQASGKGLEWVGRIRSKSHNYATLYAASLKGRFTLSRDDSRNTAYLQMSSLQTEDMAVYYCTVLSANYDTFDYWGQGTLVTVSS
VL: SYELTQPPSVSVSPGQTARISCFGDTLPKQYTYWYQQKPGQAPVLVIYKDTERPSGIPERFSGSSSGTTVTLTISGVQAEDEADYYCLSADNSATWVFGGGTKVTVLG
notes: Only the heavy chain of ch4E4 was changed (Asn-30 to Gln)
Q: For B1, which “fold higher apparent binding affinity relative to the original, glycosylated antibody (ch4E4)” value [1] is on record?
A: ~4 fold

B2: recombinant human antibody NI-105.6C5 (germlined) (antibody, human IgG1, V domains shown)
VH: QVQLVESGGGVVQPGRSLRVSCAASGFTFSSYDMHWVRQAPGKGLEWVAVIWFDGSNEFYADSVKGRFTISRDNSKNTLFLQMNSLRAEDTAVYYCARDLGASVTTSNAENFHHWGQGTLVTVSS
VL: SYELTQPPSVSVSPGQTARITCSGDALPKRYVYWYQQKSGQAPVLVIYEDSKRPSGIPETFSGSSSGTMATLTISGAQVEDEADYYCYSTDSNGHHWVFGGGTKLTVL
Q: Does B2 bind [2]?
A: no binding

Q: What about the EC50 [3] of the same binder?
A: 0.033 nM

Q: What about the EC50 [4] of the same binder?
A: 0.04 nM

B3: recombinant human antibody NI-105.24B2 (antibody, V domains shown)
VH: EVQLVQSGAEVKKPGASVKVSCKASGYTFVNYIIHWVRQAPGQGLEWMGIINPNGGNTSYAEKFQARVTLTSDTSTSTVYMDLSSLTSEDTAVYYCAVLSPSNPWGQGTTVTVSS
VL: SYVLTQPPSVSVSPGQTAGITCSGDALPKQFVYWYQKKPGQAPVLLIYKDTERPSRIPERFSGSTSGTTVALTINGVQAEDEADYYCQSADRSGALWVFGGGTKLTVL
notes: Human antibody described in US 2012/0087861; used as cloned
Q: How did the EC50 [5] turn out when B3 was run?
A: 6.6 nM

B4: recombinant human antibody NI-105.4A3 (antibody, V domains shown)
VH: EVQLVETGGGAVQPGGSLRLSCAASGFTFSDYAMHWVRQAPGKGLQWVAVISYEGTYKYYADSVKGRFTISRDNSKNTLNLQMSSLRVEDTAVYFCVKARAFASGQRSTSTVPDYWGQGTLVTVSS
VL: SYELTQPPSVSVSPGQTARITCSGDALPKKYAYWYQQKSGQAPVLVIYEDNKRPSGIPERFSGSSSGTVATLTISGAQVDDEADYYCYSTDISGDLRVFGGGTKLTVL
notes: as for B3
Q: With B4 as the binder, how does the EC50 [6] read?
A: 1.4 nM
